Consider 84 variants from the RNAGym collection of RNA variant scans (doi:10.1073/pnas.2313332121).

The chains are these.
B1: TPR t1 (parent)
chain: GACCAAUCUGCCCUCAGAGCUCGAGAACAUCUUCGGAUGCAGAGGAGGCAGGCUUCGGUGGCGCGAUAGCGCCAACGUCCUCAACCUCCAAUGCAUCCCACCACAUGAUGAUGCCUGAAGAGCCUUGGUUUUUUG

In this data set the parent is B1. In words: polymerase ribozyme fitness, log enrichment relative to wild type (log ratio); higher = more active; in vitro selection for triplet polymerase activity. The essentials:
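A heterodimeric triplet polymerase ribozyme had each of its subunits mutagenized by PCR into a library, which was transcribed. One round of in vitro selection, done in triplicate, annealed each library with a biotinylated primer, its partner subunit and triplets, then incubated it frozen at −7 °C before gel excision of extended constructs, streptavidin-bead capture and RT-PCR. Fitness is the logarithm of genotype enrichment relative to wild-type enrichment, based on Illumina sequencing of inputs and outputs and inverse-variance-weighted replicate averages. A base-2 logarithm is used, and genotypes were kept only with ≥10 input reads and ≥1 read per output.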
For C34G A111G U129G, the “polymerase ribozyme fitness (log ratio)” value was -6.92.
With G71A C86A A111C G113C the figure was -5.65; with C62U C72U, -1.03.
Regarding C62A A83U A90U A91C, the “polymerase ribozyme fitness (log ratio)” value is -3.43.
As for A43G C49A, the “polymerase ribozyme fitness (log ratio)” value was -2.37.
For the variant A5C C12U, the “polymerase ribozyme fitness (log ratio)” value amounted to 0.118.
Regarding G25U C64G C94U C124G, the “polymerase ribozyme fitness (log ratio)” value was -6.12.
Consider G35U G69A, for which the “polymerase ribozyme fitness (log ratio)” value is -7.16.
With C11A A121U the figure was 0.371; with C40G C72G C73A U78G, -4.57.
With C13A G48A C114U U129A the figure was -5.75.
In the case of G36C C76A U106A G110A, the “polymerase ribozyme fitness (log ratio)” value was -4.36.
With G69U C86U U109A C115G U126A the figure was -7.39; with G39A C70G, -3.16.
In the case of C94U, the “polymerase ribozyme fitness (log ratio)” value was -0.383.
As for C94A, the “polymerase ribozyme fitness (log ratio)” value was -0.804.
For the variant G93U G128C, the “polymerase ribozyme fitness (log ratio)” value is -4.57.
With G42U A74G C85A the figure was -1.78; with C3A C104U, -0.516; with C8A A41U G61A C86A, -1.24.
As for U32A G61U, the “polymerase ribozyme fitness (log ratio)” value is -2.74.
With U14G U78A G117A G120A the figure was -2.29.
As for G51U C62G, the “polymerase ribozyme fitness (log ratio)” value was -5.98.
With G19A U109A the figure was -5.74.
With C8U C62A the figure was -0.587; with C13U A27U C72A U130A, -2.6.
With C11G U21G G93A the figure was -2.28; with A37U A50G, -0.867; with A41U C72G U125G U133G, -2.77.
Take C72A U109C: the “polymerase ribozyme fitness (log ratio)” value was -2.36.
As for G19C G57A G69U C85G, the figure is -4.01; as for A118G, -0.226; as for C28G C34G G42U A46G C56A C104A A111G U131G, -5.4.
As for C13A A18G C73A, the figure is -4.96; as for C34U C53U C56U, -5.01; as for C12G C123U, 1.34.
As for C11A C53U C85A, the figure is -3.03; as for G71C U130G, -1.76.
For the variant C13U A50C, the “polymerase ribozyme fitness (log ratio)” value is -0.095.
As for C64A C73G, the figure is -6.34.
As for C15G C40U C56A C73U C80A C124G, the figure is -5.12; as for A46G C73G C82U G93A C104A, -4.85.
As for C3G A24G, the figure is -3.73; as for G52C U129C, -1.64; as for U55G G93A G117U, -3.04.
In the case of C12U C99U, the “polymerase ribozyme fitness (log ratio)” value was -2.6.
With U9G A18C C56G G120A U130A the figure was -1.19; with C70U U81G A84C G122A, -5.65.
For the variant G45U C49A, the “polymerase ribozyme fitness (log ratio)” value is -0.895.
As for G44C C53G C73U C82U C99G C124G, the “polymerase ribozyme fitness (log ratio)” value was -7.17.
Take G23C G69A G120A A121U C123U U129C: the “polymerase ribozyme fitness (log ratio)” value is -6.52.
As to C8U C76A C79G C123G, the “polymerase ribozyme fitness (log ratio)” value is 0.407.
With G60C G69A the figure was -4.01; with C28A G44U U78G G113A, -4.24.
As for G10A A90C A121C, the figure is 0.254.
As for U38G C56U U81A U131C, the figure is -2.23.
Regarding C97U U125G, the “polymerase ribozyme fitness (log ratio)” value was -1.25.
As for G47A G48A U129A, the “polymerase ribozyme fitness (log ratio)” value was -2.41.
With C12U C28G the figure was -1.98.
On to G71C U133A, for which the “polymerase ribozyme fitness (log ratio)” value was -0.636.
With G39A G51U A83G A95C C124A the figure was -2.8.
For G69A C79A, the “polymerase ribozyme fitness (log ratio)” value was -3.99.
As for G44A C86A C89U C115G C123A, the figure is -2.79.
As for A41U C104A, the figure is -3.22; as for G19C G52A C88A U112G C114A, -6.11.
As for G44A A121G, the figure is 1.53; as for G45U C49A U59C C97G, -5.1; as for C22U A91U U112G, -6.06.
As for G23A G77A, the “polymerase ribozyme fitness (log ratio)” value is -6.34.
With G51A A84C the figure was -2.3; with G60U C124G, 1.38.
Consider G36U G52A C97U G110A, for which the “polymerase ribozyme fitness (log ratio)” value is -2.04.
As to A41G U81A, the “polymerase ribozyme fitness (log ratio)” value was -1.07.
With C3U A41G C102A G120A the figure was -3.46.
With A46U U106A C124G U129G the figure was -0.0518; with C15A U33C A83U C101G G117C, -7.47; with A29C A75G U78G, -2.56.
Regarding C8G C85A A121U, the “polymerase ribozyme fitness (log ratio)” value amounted to 1.35.
With C4G C40G the figure was -2.02.
With C73A G120U the figure was 0.347.
With C115A G122A the figure was -0.767; with G36C C70G, -5.05.
Take C40A G63A: the “polymerase ribozyme fitness (log ratio)” value is -2.68.
As for A18U U78G U96G, the figure is -4.41.
